Experiments:
human α-thrombin (human) = human α-thrombin (human) (UniProt P00734)
apo-transferrin [1] = target: T1, apo-transferrin (human, UniProt P02787 20-698); assay: SPR; conditions: plateau of the association phase, read off a plot
T1 construct: transferrin (serotransferrin), human, iron-free state; Several paragraphs and legends say only 'transferrin' where the text says apo-transferrin for the same panels; rows told of 'transferrin' alone are tied to this molecule; also called Tf; TRF; source: bought: Sigma (purity greater than 98%)

apo-transferrin [2] = target: T1, apo-transferrin; assay: SPR; BIAcore 2000; apo-transferrin or holo-transferrin immobilised on a CM5 chip (~2000 RU); serial concentrations of thrombin, FXIIa, fibrinogen, AT, prothrombin or FXII in Tris–HCl buffer (20 mM, pH 7.4) at 10 μL/min
apo-transferrin [3] = target: T1, apo-transferrin; assay: SPR; CM5 chip coupled with 100 RU of transferrin; binding molar ratio from the saturation RU of the flowing phase and the RU of the immobilised phase; conditions: for stoichiometry N: both partners purified
apo-transferrin [4] = target: T1, apo-transferrin; assay: SPR; transferrin with synthetic peptides (TH16, FX18, RCL19 and their scrambled controls); conditions: both partners purified

An enhancement of the enzymatic activity of thrombin (chromogenic substrate) by transferrin at 0.2, 1 and 5 μM (human α-thrombin (human)) of 1.8 fold, an increase of fibrinopeptide A released from fibrinogen by thrombin after 30 min with transferrin at 0.2, 1 and 5 μM (RP-HPLC) (human α-thrombin (human)) of 1.2 fold and an increase of fibrinopeptide B released from fibrinogen by thrombin after 30 min with transferrin at 0.2, 1 and 5 μM (RP-HPLC) (human α-thrombin (human)) of 4.2 fold were found for “apo-transferrin (from UniProt P02787 20-698) (natural protein)” in this work.

A response (apo-transferrin [1]; 25 nM trace, parent: est. 9) of 2.5 RU and a response (apo-transferrin [1]; 50 nM trace, parent: est. 14) of 5.5 RU were found for “wild-type thrombin (from UniProt P00734) R117A; R122A” in this work.

A Kd (apo-transferrin [2]) of 40 nM, a koff (apo-transferrin [2]) of 0.0012 s⁻¹ and a kon (apo-transferrin [2]) of 30000 M⁻¹ s⁻¹ were found for FXII (natural protein) in this work.

A stoichiometry N (transferrin per thrombin (molar ratio)) (apo-transferrin [3]) of 1 and a Kd (apo-transferrin [2]) of 7.7 nM were found for “human α-thrombin (from UniProt P00734 364-622) (enzyme)” in this work.

A Kd (apo-transferrin [4]) of 97 nM, a koff (apo-transferrin [4]) of 0.0003 s⁻¹ and a kon (apo-transferrin [4]) of 3100 M⁻¹ s⁻¹ were found for RIGKHSRTRYERNIEK (source: synthetic peptide) [TH16] in this work.

B1: fibrinogen (natural protein)
chain 1: ADSGEGDFLAEGGGVRGPRVVERHQSACKDSDWPFCSDEDWNYKCPSGCRMKGLIDEVNQDFTNRINKLKNSLFEYQKNNKDSHSLTTNIMEILRGDFSSANNRDNTYNRVSEDLRSRIEVLKRKVIEKVQHIQLLQKNVRAQLVDMKRLEVDIDIKIRSCRGSCSRALAREVDLKDYEDQQKQLEQVIAKDLLPSRDRQHLPLIKMKPVPDLVPGNFKSQLQKVPPEWKALTDMPQMRMELERPGGNEITRGGSTSYGTGSETESPRNPSSAGSWNSGSSGPGSTGNRNPGSSGTGGTATWKPGSSGPGSTGSWNSGSSGTGSTGNQNPGSPRPGSTGTWNPGSSERGSAGHWTSESSVSGSTGQWHSESGSFRPDSPGSGNARPNNPDWGTFEEVSGNVSPGTRREYHTEKLVTSKGDKELRTGKEKVTSGSTTTTRRSCSKTVTKTVIGPDGHKEVTKEVVTSEDGSDCPEAMDLGTLSGIGTLDGFRHRHPDEAAFFDTASTGKTFPGFFSPMLGEFVSETESRGSESGIFTNTKESSSHHPGIAEFPSRGKSSSYSKQFTSSTSYNRGDSTFESKSYKMADEAGSEADHEGTHSTKRGHAKSRPVRGIHTSPLGKPSLSP
chain 2: QGVNDNEEGFFSARGHRPLDKKREEAPSLRPAPPPISGGGYRARPAKAAATQKKVERKAPDAGGCLHADPDLGVLCPTGCQLQEALLQQERPIRNSVDELNNNVEAVSQTSSSSFQYMYLLKDLWQKRQKQVKDNENVVNEYSSELEKHQLYIDETVNSNIPTNLRVLRSILENLRSKIQKLESDVSAQMEYCRTPCTVSCNIPVVSGKECEEIIRKGGETSEMYLIQPDSSVKPYRVYCDMNTENGGWTVIQNRQDGSVDFGRKWDPYKQGFGNVATNTDGKNYCGLPGEYWLGNDKISQLTRMGPTELLIEMEDWKGDKVKAHYGGFTVQNEANKYQISVNKYRGTAGNALMDGASQLMGENRTMTIHNGMFFSTYDRDNDGWLTSDPRKQCSKEDGGGWWYNRCHAANPNGRYYWGGQYTWDMAKHGTDDGVVWMNWKGSWYSMRKMSMKIRPFFPQQ
chain 3: YVATRDNCCILDERFGSYCPTTCGIADFLSTYQTKVDKDLQSLEDILHQVENKTSEVKQLIKAIQLTYNPDESSKPNMIDAATLKSRKMLEEIMKYEASILTHDSSIRYLQEIYNSNNQKIVNLKEKVAQLEAQCQEPCKDTVQIHDITGKDCQDIANKGAKQSGLYFIKPLKANQQFLVYCEIDGSGNGWTVFQKRLDGSVDFKKNWIQYKEGFGHLSPTGTTEFWLGNEKIHLISTQSAIPYALRVELEDWNGRTSTADYAMFKVGPEADKYRLTYAYFAGGDAGDAFDGFDFGDDPSDKFFTSHNGMQFSTWDNDNDKFEGNCAEQDGSGWWMNKCHAGHLNGVYYQGGTYSKASTPNGYDNGIIWATWKTRWYSMKKTTMKIIPFNRLTIGEGQQHHLGGAKQAGDV
notes: fibrinogen alpha chain; fibrinogen beta chain; fibrinogen gamma chain; the SPR and native gel methods say only 'fibrinogen'; also called factor I; source: bought: Cayman (16088); copies: + +
In the case of B1, the “stoichiometry N” value (apo-transferrin [3]) is reported as 4 apo-transferrin per fibrinogen (molar ratio).

B2: human α-FXIIa (enzyme)
chain 1: IPPWEAPKEHKYKAEEHTVVLTVTGEPCHFPFQYHRQLYHKCTHKGRPGPQPWCATTPNFDQDQRWGYCLEPKKVKDHCSKHSPCQKGGTCVNMPSGPHCLCPQHLTGNHCQKEKCFEPQLLRFFHKNEIWYRTEQAAVARCQCKGPDAHCQRLASQACRTNPCLHGGRCLEVEGHRLCHCPVGYTGAFCDVDTKASCYDGRGLSYRGLARTTLSGAPCQPWASEATYRNVTAEQARNWGLGGHAFCRNPDNDIRPWCFVLNRDRLSWEYCDLAQCQTPTQAAPPTPVSPRLHVPLMPAQPAPPKPQPTTRTPPQSQTPGALPAKREQPPSLTRNGPLSCGQRLRKSLSSMTR
chain 2: VVGGLVALRGAHPYIAALYWGHSFCAGSLIAPCWVLTAAHCLQDRPAPEDLTVVLGQERRNHSCEPCQTLAVRSYRLHEAFSPVSYQHDLALLRLQEDADGSCALLSPYVQPVCLPSGAARPSETTLCQVAGWGHQFEGAEEYASFLQEAQVPFLSLERCSAPDVHGSSILPGMLCAGFLEGGTDACQGDSGGPLVCEDQAAERRLTLQGIISWGSGCGDRNKPGVYTDVAYYLAWIREHTVS
notes: factor XIIa heavy chain, cut product of human factor XII; factor XIIa light chain (protease domain), cut product of human factor XII; also called factor XIIa; source: bought: Enzyme Research Laboratories (HFXIIa 1212a)
For B2, the “stoichiometry N” value (apo-transferrin [3]) was 1 transferrin per FXIIa (molar ratio), the Kd (apo-transferrin [2]; both partners purified) was 13.9 nM and the koff (apo-transferrin [2]; both partners purified) was 0.0025 s⁻¹. For the same molecule, the kon (apo-transferrin [2]; both partners purified) was 180000 M⁻¹ s⁻¹.

B3: RCL19 (peptide)
peptide: EAAASTAVVIAGRSLNPNR
notes: from the reactive center loop (RCL) of antithrombin; also called synthetic peptide from the RCL of AT; source: synthetic peptide
A Kd (apo-transferrin [4]) of 556 nM, a koff (apo-transferrin [4]) of 0.001 s⁻¹ and a kon (apo-transferrin [4]) of 1800 M⁻¹ s⁻¹ were found for B3 in this work.

A Kd (apo-transferrin [4]) of 143 nM, a koff (apo-transferrin [4]) of 0.0004 s⁻¹ and a kon (apo-transferrin [4]) of 2800 M⁻¹ s⁻¹ were found for RRNHSCEPCQTLAVRSYR (source: synthetic peptide) [FX18] in this work.
